According to patent US20240400677A1 (ELECTRA THERAPEUTICS, published 2024):

Key:
[1] = target: T1, cynomolgus monkey SIRPα on CHO cells (cynomolgus monkey, UniProt A0A2K5VYQ9 31-507); assay: flow cytometry, CHO transfectants, anti-human IgG
T1 construct: whole, on cells; also called Cyno SIRPα CHO
T1 sequence: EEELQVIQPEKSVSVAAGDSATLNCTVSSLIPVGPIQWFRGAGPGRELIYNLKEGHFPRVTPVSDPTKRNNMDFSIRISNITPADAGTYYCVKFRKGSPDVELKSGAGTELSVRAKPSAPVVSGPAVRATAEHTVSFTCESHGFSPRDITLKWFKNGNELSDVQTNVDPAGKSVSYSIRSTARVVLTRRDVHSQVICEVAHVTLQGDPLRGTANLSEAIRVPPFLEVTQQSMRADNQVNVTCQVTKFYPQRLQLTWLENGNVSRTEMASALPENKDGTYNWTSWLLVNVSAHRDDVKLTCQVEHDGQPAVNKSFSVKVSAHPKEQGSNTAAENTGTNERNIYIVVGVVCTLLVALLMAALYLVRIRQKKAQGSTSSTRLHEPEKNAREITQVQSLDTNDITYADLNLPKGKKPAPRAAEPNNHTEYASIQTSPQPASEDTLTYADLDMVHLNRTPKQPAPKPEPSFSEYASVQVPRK
Experimental: (§1) Selected antibodies were tested for binding to stably transfected human SIRPγ, SIRPαV1, or SIRPβ1 (co-transfected with DAP12) Chinese hamster ovary (CHO) cells via flow cytometry. A titration of select antibodies was added to the cells and detected using a fluorescently labelled secondary anti-rat IgG antibody or anti-human IgG antibody. Graphs depict the median fluorescence intensity (MFI) at each concentration. FIGS. 5A and 5G show the binding curves of select antibodies to human SIRPγ, cynomolgus monkey SIRPγ, human SIRPα, cynomolgus monkey SIRPα, human SIRPβ1, or cynomolgus monkey SIRPβl-expressing CHO cells detected using an anti-rat IgG antibody. FIGS. 5B-5F and 5H-5L show the binding curves of select antibodies to human SIRPγ, cynomolgus monkey SIRPγ, human SIRPα, cynomolgus monkey SIRPα, human SIRPβ1, or cynomolgus monkey SIRPβ1-expressing CHO cells detected using an anti-human IgG antibody. […] For select antibodies, each myc-tagged SIRPγ scFv antibody as crude PPE was incubated with each of the SIRP-expressing cell lines stated above along with the parental CHO-K1 cell line. […] Fold change value <2.0 is considered a non-binder.

[2] = target: T2, human SIRPβ1 on CHO cells (co-transfected with DAP12) (human, UniProt O00241 30-398); assay: flow cytometry, CHO transfectants, anti-human IgG
T2 construct: whole, on cells; co-transfected with DAP12; also called Human SIRPβ1 CHO
Experimental: as §1

[3] = target: T3, Cynomolgus Monkey SIRPγ (plate-coated extracellular domain); assay: ELISA, coated SIRP ECD (2 µg/mL), anti-human IgG, luminescence
T3 construct: also called Cyno SIRPγ
T3 extracellular domain: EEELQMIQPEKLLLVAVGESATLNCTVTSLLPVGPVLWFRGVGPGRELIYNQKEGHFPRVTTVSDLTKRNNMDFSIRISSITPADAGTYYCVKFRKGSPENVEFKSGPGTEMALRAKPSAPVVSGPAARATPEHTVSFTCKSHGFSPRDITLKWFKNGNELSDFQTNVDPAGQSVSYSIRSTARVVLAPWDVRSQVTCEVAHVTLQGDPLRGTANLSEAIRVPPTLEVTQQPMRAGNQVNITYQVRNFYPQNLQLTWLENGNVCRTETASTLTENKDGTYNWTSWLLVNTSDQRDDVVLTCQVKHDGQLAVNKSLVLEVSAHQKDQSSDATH
Experimental: (§2) Selected hybridoma supernatants of Example 1 were tested for binding to human SIRPγ, cynomolgus monkey SIRPγ, human SIRPα V1, cynomolgus monkey SIRPα, human SIRPβ1, and cynomolgus monkey SIRPβ1 by enzyme-linked immunosorbent assay (ELISA). Briefly, 2 μg/mL of the extracellular domain of SIRP protein was coated onto high protein-binding plates and blocked. Undiluted supernatants were added to coated plates. The antibodies were detected by an anti-rat antibody and a chemiluminescent substrate. […] The data depict the relative luminescence units read by a plate-reader capable of detecting chemiluminescence.
(§3) FIGS. 2A-2G show binding curves of SIRPγ antibodies and human Fc isotype controls to human SIRPγ, cynomolgus monkey SIRPγ, human SIRPα V1, human SIRPα V2, and human SIRPβ1 by ELISA. […] Isotype control 2 was an unrelated human IgG1 antibody with irrelevant CDRs with no modifications in the Fc region. DNA was transiently transfected into Expi293F cells for 5 days. Antibodies were purified by Protein A from cell supernatants and analyzed in a titration via ELISA as previously described in FIG. 1 using an anti-human IgG antibody as the detection antibody.

[4] = target: T4, extracellular binding domain of human SIRPγ (plate-coated) (human, UniProt Q9P1W8 29-360); assay: as above
T4 construct: also called hSIRPγ
Experimental: as §2, §3

T2 sequence (O00241 30-398): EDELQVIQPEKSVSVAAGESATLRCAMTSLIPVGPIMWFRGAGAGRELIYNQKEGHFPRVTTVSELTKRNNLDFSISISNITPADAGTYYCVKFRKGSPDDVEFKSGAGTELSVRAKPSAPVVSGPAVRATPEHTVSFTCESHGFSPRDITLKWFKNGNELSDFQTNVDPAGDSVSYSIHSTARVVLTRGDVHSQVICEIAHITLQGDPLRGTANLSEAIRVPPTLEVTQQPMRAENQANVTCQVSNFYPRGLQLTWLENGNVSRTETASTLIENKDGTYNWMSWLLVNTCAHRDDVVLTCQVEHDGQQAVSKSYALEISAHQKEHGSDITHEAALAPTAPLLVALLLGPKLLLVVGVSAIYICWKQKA
T4 sequence (Q9P1W8 29-360 limits assumed): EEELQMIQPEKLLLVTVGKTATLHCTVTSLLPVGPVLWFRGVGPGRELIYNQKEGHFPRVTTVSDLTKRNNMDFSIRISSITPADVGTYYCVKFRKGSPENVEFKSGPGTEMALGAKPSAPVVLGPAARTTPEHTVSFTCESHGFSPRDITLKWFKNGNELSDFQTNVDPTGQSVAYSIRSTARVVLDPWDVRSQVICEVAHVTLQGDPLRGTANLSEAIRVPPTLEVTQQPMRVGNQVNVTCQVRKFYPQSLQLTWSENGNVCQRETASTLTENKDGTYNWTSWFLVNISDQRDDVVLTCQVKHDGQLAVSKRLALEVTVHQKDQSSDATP

B1: Antibody 62 (antibody, V domains shown)
VH: QVQLVQSGAEVKKPGASVKVSCKASGGTFSNYDINWVRQAPGQGLEWMGWISAYNGNTNYAQKLQGRVTMTRDTSTSTVYMELSSLRSEDTAVYYCAAEAYGDYSLDPWGQGTLVTVSS
VL: DIQMTQSPSSLSASVGDRVTITCQASQGISSYLNWYQQKPGKAPKLLIYAASSLQNGVPSRFSGSGSGTDFTLTISSLQPEDFATYYCQQSYSTPITFGQGTRLEIK
- binding result [1]: no binding (tested: about 20 µg/mL)
- binding result [2]: no binding (tested: about 20 µg/mL)
- binding result [3]: binds

B2: Antibody 81 (antibody, V domains shown)
VH: QVQLVQSGAEVKKPGASVKVSCKASGYTFTSYDINWVRQAPGQGLEWMGWISGYNGNTNYAQKFQGRVTMTRDTSTSTVYMELSSLRSEDTAVYYCARSFDWLLLLDYWGQGTLVTVSS
VL: DIQMTQSPSSLSASVGDRVTITCRASQSISSWLAWYQQKPGKAPKLLIYDATTLESGVPSRFSGSGSGTDFTLTISSLQPEDFATYYCQQYDSYPWTFGQGTKLEIK
- binding result [1]: no binding (tested: about 20 µg/mL)
- binding result [2]: no binding (tested: about 20 µg/mL)
- EC50 (read off the curve) [3]: ~0.04 µg/mL
- EC50 (read off the curve) [4]: ~0.02 µg/mL

B3: Antibody 77 (antibody, V domains shown)
VH: QVQLVQSGAEVKKPGASVKVSCKASGYTFTSYGISWVRQAPGQGLEWMGWISAYNGNTNYAQKFQGRVTMTRDTSTSTVYMELSSLRSEDTAVYYCARGTYYDYIWGSYRYSWFDYWGQGTLVTVSS
VL: not shown
- binding result [1]: no binding (tested: about 20 µg/mL)
- binding result [2]: no binding (tested: about 20 µg/mL)
- EC50 (read off the curve) [3]: ~0.04 µg/mL
- EC50 (read off the curve) [4]: ~0.02 µg/mL

B4: Antibody 61 (antibody, V domains shown)
VH: QVQLVQSGAEVKKPGASVKVSCKASGYTFTSHDINWVRQAPGQGLEWMGISNPSGGSTYYAQKFQGRVTMTRDTSTSTVYMELSSLRSEDTAVYYCASSRRYWNGAFDYWGQGTLVTVSS
VL: not shown
- binding result [3]: binds

B5: Antibody 74 (antibody, V domains shown)
VH: QVQLVQSGAEVKKPGASVKVSCKASGGTFSNYGFSWVRQAPGQGLEWMGWMSPSSGNTGYAQKFQGRVTMTRDTSTSTVYMELSSLRSEDTAVYYCARERSGSYFDYWGQGTLVTVSS
VL: EIVMTQSPATLSVSPGERATLSCRASQSVSSYLAWYQQKPGQAPRLLIYGTSTRATGIPARFSGSGSGTEFTLTISSLQSEDFAVYYCQQYGSLPFTFGQGTRLEIK
- binding result [1]: no binding (tested: about 20 µg/mL)
- binding result [2]: no binding (tested: about 20 µg/mL)
- EC50 (read off the curve) [3]: ~0.7 µg/mL
- EC50 (read off the curve) [4]: ~0.4 µg/mL

B6: Antibody 76 (antibody, V domains shown)
VH: QVQLVQSGAEVKKPGSSVKVSCKASGGTFSKIAVSWVRQAPGQGLEWMGLINPNSGGTDYAQKFQGRVTITADESTSTAYMELSSLRSEDTAVYYCAKDFRGGDYYYYGMDVWGQGTTVTVSS
VL: EIVMTQSPATLSVSPGERATLSCRASQSVSSNLAWYQQKPGQAPRLLIYGASTRATGIPARFSGSGSGTEFTLTISSLQSEDFAVYYCQQYNTYPITFGQGTKVEIK
- binding result [1]: no binding (tested: about 20 µg/mL)
- binding result [2]: no binding (tested: about 20 µg/mL)
- EC50 (read off the curve) [3]: ~0.1 µg/mL
- EC50 (read off the curve) [4]: ~0.09 µg/mL

B7: Antibody 78 (antibody, V domains shown)
VH: QVQLVQSGAEVKKPGASVKVSCKASGYTFTTYGISWVRQAPGQGLEWMGWMDPNSGSTGYAQKFQGRVTMTRDTSTSTVYMELSSLRSEDTAVYYCARGRGNSYYYYYMDVWGKGTTVTVSS
VL: DIQMTQSPSSLSASVGDRVTITCRASQRIGSYLNWYQQKPGKAPKLLIYGASNLQSGVPSRFSGSGSGTDFTLTISSLQPEDFATYYCQQANSFPFTFGPGTKVDIK
- binding result [1]: no binding (tested: about 20 µg/mL)
- binding result [2]: no binding (tested: about 20 µg/mL)
- binding result [3]: binds

B8: Antibody 58 (antibody, V domains shown)
VH: QVQLVQSGAEVKKPGASVKVSCKASGYTFTAYYMHWVRQAPGQGLEWMGIINPSGGSTSYAQKFQGRVTMTRDTSTSTVYMELSSLRSEDTAVYYCARDSGWYAPGYYYGMDVWGQGTTVTVSS
VL: DIQMTQSPSSLSASVGDRVTITCRASESISHWLAWYQQKPGKAPKLLIYGASTLQSGVPSRFSGSGSGTDFTLTISSLQPEDFATYYCQQSYTPPLTFGGGTKVEIK
- binding result [1]: no binding (tested: about 20 µg/mL)
- binding result [2]: no binding (tested: about 20 µg/mL)
- EC50 (read off the curve) [3]: ~0.1 µg/mL
- EC50 (read off the curve) [4]: ~0.09 µg/mL

B9: Antibody 55 (antibody, V domains shown)
VH: EVQLLESGGGLVQPGGSLRLSCAASGFTFSNSDMNWVRQAPGKGLEWVSYISSSGNTIYYADSVKGRFTISRDNSKNTLYLQMNSLRAEDTAVYYCARSNWNYPLDYYYMDVWGKGTTVTVSS
VL: DIVMTQSPLSLPVTPGEPASISCRSSQSLLHSNGYNYLDWYLQKPGQSPQLLIYAASSLQSGVPDRFSGSGSGTDFTLKISRVEAEDVGVYYCMQGTHWPPTFGQGTKVEIK
- binding result [1]: no binding (tested: about 20 µg/mL)
- binding result [2]: no binding (tested: about 20 µg/mL)
- EC50 (read off the curve) [4]: ~0.7 µg/mL

B10: Antibody 56 (antibody, V domains shown)
VH: QVQLVQSGAEVKKPGASVKVSCKASGYTFTSYYMHWVRQAPGQGLEWMGWVDPNNGDTGYAQKFQGRVTMTRDTSTSTVYMELSSLRSEDTAVYYCARDNWGSLDVWGKGTTVTVSS
VL: DIVMTQSPLSLPVTPGEPASISCRSSQSLLHSNGYNYLDWYLQKPGQSPQLLIYAASTLQSGVPDRFSGSGSGTDFTLKISRVEAEDVGVYYCMQGLQTLYSFGQGTKLEIK
- binding result [2]: no binding (tested: about 20 µg/mL)
- EC50 (read off the curve) [3]: ~0.4 µg/mL
- EC50 (read off the curve) [4]: ~0.7 µg/mL

B11: Antibody 66 (antibody, V domains shown)
VH: QVQLVQSGAEVKKPGASVKVSCKASGGTFSSYAISWVRQAPGQGLEWMGIINPSSSSTGYAQKFQGRVTMTRDTSTSTVYMELSSLRSEDTAVYYCARAGYYDSSGYYYSPYYGMDVWGQGTTVTVSS
VL: EIVMTQSPATLSVSPGERATLSCRASQSISGSYLAWYQQKPGQAPRLLIYGASTRATGIPARFSGSGSGTEFTLTISSLQSEDFAVYYCQQYGSFPFTFGPGTKVDIK
- binding result [1]: no binding (tested: about 20 µg/mL)
- binding result [2]: no binding (tested: about 20 µg/mL)
- EC50 (read off the curve) [3]: ~0.1 µg/mL

B12: Antibody 67 (antibody, V domains shown)
VH: QVQLVQSGAEVKKPGASVKVSCKASGYTFTNFDINWVRQAPGQGLEWMGWISAYNGHTNYAQNLQGRVTMTRDTSTSTVYMELSSLRSEDTAVYYCAQEAAAGYFDYWGQGTLVTVSS
VL: DIQMTQSPSSLSASVGDRVTITCRASQDIRNDLAWYQQKPGKAPKLLIYDASNLETGVPSRFSGSGSGTDFTLTISSLQPEDFATYYCQQSYGTPYTFGQGTKLEIK
- binding result [1]: no binding (tested: about 20 µg/mL)
- binding result [2]: no binding (tested: about 20 µg/mL)
- binding result [3]: binds
